Reference: patent publication US20160159862A1 (PROTAGONIST THERAPEUTICS, published 2016)
Bridge positions count the residues as written; N and C are the ends. Square brackets hold non-standard residues; d marks the D form. Ends that are not written are not given here. * marks the point of attachment. Phe(4-CF3) = N[C@@H](Cc1ccc(C(F)(F)F)cc1)C(=O)O; Phe(4-tBu) = CC(C)(C)c1ccc(C[C@H](N)C(=O)O)cc1; 2Nal = N[C@@H](Cc1ccc2ccccc2c1)C(=O)O; d1Nal = N[C@H](Cc1cccc2ccccc12)C(=O)O; d2Nal = N[C@H](Cc1ccc2ccccc2c1)C(=O)O; Oleoyl = CCCCCCCC/C=C\CCCCCCCC(=O)*; NMeR = CN[C@@H](CCCNC(=N)N)C(=O)O; Palmitoyl = CCCCCCCCCCCCCCCC(=O)*; hPhe = N[C@@H](CCc1ccccc1)C(=O)O; Myristoyl = CCCCCCCCCCCCCC(=O)*; NMeE = CN[C@@H](CCC(=O)O)C(=O)O; β3hE = N[C@@H](CCC(=O)O)CC(=O)O; Pen = CC(C)(S)[C@H](N)C(=O)O; dNMeK = CN[C@H](CCCCN)C(=O)O; Lauroyl = CCCCCCCCCCCC(=O)*; Isovaleryl = CC(C)CC(=O)*; Dab = NCC[C@H](N)C(=O)O; Dap = NC[C@H](N)C(=O)O; Hexanoyl = CCCCCC(=O)*

Target: α4β7 integrin on human cells (human, UniProt P13612 34-1032; P26010 20-798)
Assay: cell-based or functional assay

Row | Binder | α4β7 cell (Hu) IC50 [nM]
1 | Ac-[Pen][NMeR]SDTL[Pen]WE[Dap] (disulfide 1-7 (inferred); also: Ac written after C-terminal Dap, place unclear) [SEQ ID NO 60] | > 1000
2 | Hexanoyl-[Pen][NMeR]SDTL[Pen][Phe(4-tBu)][b‑H‑E][dK]-NH2 (disulfide 1-7 (inferred)) [SEQ ID NO 176] | > 50
3 | Ac-[dK]C[NMeR]SDTLCW[dK]-NH2 (disulfide 2-8 (inferred); also: dimer joined by DIG) [SEQ ID NO 4] | > 10
4 | Ac-[Pen][NMeR]SDTL[Pen]W[dE][Dap]-NH2 (disulfide 1-7 (inferred)) [SEQ ID NO 55] | > 100
5 | Ac-[Pen][NMeR]SDDL[Pen][Phe(4-tBu)][β3hE][dK]-NH2 (disulfide 1-7 (inferred); also: homodimer via IDA, Alexa-647 label on IDA) [SEQ ID NO 193] | > 100000
6 | Ac-[Pen][NMeR]SDIL[Pen][Phe(4-tBu)][β3hE][dK]-NH2 (disulfide 1-7 (inferred); also: homodimer via IDA, Alexa-647 label on IDA) [SEQ ID NO 188] | ≤ 10
7 | Ac-[Pen][NMeR]SQIQ[Pen][Phe(4-tBu)][β3hE][dK]-NH2 (disulfide 1-7 (inferred); also: homodimer via IDA) [SEQ ID NO 190] | > 100000
8 | Ac-[Pen][NMeR]SDTL[Pen]WE[Dab]-NH2 (disulfide 1-7 (inferred)) [SEQ ID NO 61] | > 1000
9 | Ac-[Pen][NMeR]SDTL[Pen][dF][dE][dK]-NH2 (disulfide 1-7 (inferred); also: homodimer via DIG) [SEQ ID NO 2] | > 100
10 | Ac-[Pen][NMeR]SDTL[Pen][hPhe]E[dK]-NH2 (disulfide 1-7 (inferred); also: homodimer via DIG linker) [SEQ ID NO 45] | > 25
11 | Ac-[Pen][NMeR]SDDL[Pen][Phe(4-tBu)][β3hE][dK]-NH2 (disulfide 1-7 (inferred); also: homodimer via IDA) [SEQ ID NO 191] | > 10000
12 | Ac-[Pen][NMeR]SDIL[Pen][Phe(4-tBu)][β3hE][dK]-NH2 (disulfide 1-7 (inferred); also: homodimer via IDA) [SEQ ID NO 186] | > 100
13 | Ac-[Pen][NMeR]SDTL[Pen]WE[dK] (disulfide 1-7 (inferred); not fully specified (residue 10); printed as Ac-Pen-(N-Me-R)-S-D-T-L-Pen-W-E-k-Ac) [SEQ ID NO 65] | > 10000
14 | Ac-[Pen][NMeR]SDTL[Pen]W[dE][Dap] (disulfide 1-7 (inferred); also: Ac written after C-terminal Dap, place unclear) [SEQ ID NO 63] | > 1000
15 | Ac-[Pen][NMeR]SDTL[Pen][d1Nal]E[dK]-NH2 (disulfide 1-7 (inferred); also: homodimer via DIG linker) [SEQ ID NO 34] | > 25
16 | Myristoyl-[Pen][NMeR]SDTL[Pen][Phe(4-tBu)][β3hE][dK]-NH2 (disulfide 1-7 (inferred)) [SEQ ID NO 181] | > 1000
17 | Ac-[Pen][NMeR]SDTL[Pen][d2Nal]E[dK]-NH2 (disulfide 1-7 (inferred); also: homodimer via DIG linker) [SEQ ID NO 35] | > 100
18 | Ac-C[NMeR]SDTL[Pen]W[dK]-NH2 (disulfide 1-7 (inferred); also: homodimer via PEG13 linker) [SEQ ID NO 36] | > 50

Second part, the binder after the results:

Row | α4β7 cell (Hu) IC50 [nM] | Binder
19 | > 10000 | Ac-[Pen][NMeR]SQIQ[Pen][Phe(4-tBu)][β3hE][dK]-NH2 (disulfide 1-7 (inferred); also: homodimer via DIG) [SEQ ID NO 189]
20 | > 500 | Ac-[Pen][NMeR]SDTL[Pen][Phe(4-tBu)][b‑H‑E][dK] (disulfide 1-7 (inferred); not fully specified (residue 10); also: myristoyl (myristoyl chloride) attached after k) [SEQ ID NO 175]
21 | > 1000 | Ac-[Pen][NMeR]SDTL[Pen][Phe(4-tBu)][b‑H‑E][dK] (disulfide 1-7 (inferred); not fully specified (residue 10); also: oleoyl (oleoyl chloride) attached after k) [SEQ ID NO 174]
22 | > 100 | Ac-[Pen][NMeR]SDTL[Pen][Phe(4-tBu)][b‑H‑E][dK] (disulfide 1-7 (inferred); not fully specified (residue 10); also: lauroyl (lauroyl chloride) attached after k) [SEQ ID NO 173]
23 | > 50 | Isovaleryl-[Pen][NMeR]SDTL[Pen][Phe(4-tBu)][b‑H‑E][dK]-NH2 (disulfide 1-7 (inferred)) [SEQ ID NO 177]
24 | > 1000 | Ac-[Pen][NMeR]SDTL[Pen]WE[Dab] (disulfide 1-7 (inferred); not fully specified (residue 10); printed as Ac-Pen-(N-Me-R)-S-D-T-L-Pen-W-E-Dab-Ac) [SEQ ID NO 62]
25 | > 10 | Ac-[Pen][NMeR]SDTL[Pen][2Nal][dE][dNMeK]-NH2 (disulfide 1-7 (inferred); also: homodimer via DIG linker) [SEQ ID NO 39]
26 | > 10000 | Ac-[Pen][NMeR]SDTL[Pen]WE[Dap]-NH2 (disulfide 1-7 (inferred)) [SEQ ID NO 59]
27 | > 100 | Ac-[Pen][NMeR]SDTL[Pen][dF]E[dK]-NH2 (disulfide 1-7 (inferred); also: homodimer via DIG linker) [SEQ ID NO 30]
28 | > 1000 | Ac-[Pen][NMeR]SDTL[Pen]W[dE][Dab] (disulfide 1-7 (inferred); not fully specified (residue 10); printed as Ac-Pen-(N-Me-R)-S-D-T-L-Pen-W-e-Dab-Ac) [SEQ ID NO 64]
29 | > 1000 | Palmitoyl-[Pen][NMeR]SDTL[Pen][Phe(4-tBu)][β3hE][dK]-NH2 (disulfide 1-7 (inferred)) [SEQ ID NO 178]
30 | > 100 | Ac-C[NMeR]SDTL[Pen]W[dK]-NH2 (disulfide 1-7 (inferred); also: homodimer via PEG25 linker) [SEQ ID NO 37]
31 | > 100 | Ac-[Pen][NMeR]SDTQ[Pen][Phe(4-tBu)][β3hE][dK]-NH2 (disulfide 1-7 (inferred); also: homodimer via IDA) [SEQ ID NO 187]
32 | > 100 | Lauroyl-[Pen][NMeR]SDTL[Pen][Phe(4-tBu)][β3hE][dK]-NH2 (disulfide 1-7 (inferred)) [SEQ ID NO 179]
33 | > 500 | Ac-[Pen][NMeR]SDTL[Pen]W[dE][Dab]-NH2 (disulfide 1-7 (inferred)) [SEQ ID NO 56]
34 | > 10000 | Ac-[Pen][NMeR]SQIQ[Pen][Phe(4-tBu)][β3hE][dK]-NH2 (disulfide 1-7 (inferred); also: homodimer via IDA, Alexa-647 label on IDA) [SEQ ID NO 192]
35 | > 50 | Ac-[Pen][NMeR]SDTL[Pen]W[NMeE][dK]-NH2 (disulfide 1-7 (inferred); also: homodimer via DIG linker) [SEQ ID NO 31]
36 | > 25 | Ac-[Pen][NMeR]SDTL[Pen][Phe(4-CF3)][dE][dK]-NH2 (disulfide 1-7 (inferred); also: homodimer via DIG linker) [SEQ ID NO 3]
37 | > 1000 | Oleoyl-[Pen][NMeR]SDTL[Pen][Phe(4-tBu)][β3hE][dK]-NH2 (disulfide 1-7 (inferred)) [SEQ ID NO 180]
